Assay results from publication doi:10.1101/2025.08.21.671500.

How the values were obtained:
FOXA2 forkhead domain [1] = biological target: T1, FOXA2 forkhead domain (UniProt Q9Y261 159-252); experiment: EMSA
T1 sequence: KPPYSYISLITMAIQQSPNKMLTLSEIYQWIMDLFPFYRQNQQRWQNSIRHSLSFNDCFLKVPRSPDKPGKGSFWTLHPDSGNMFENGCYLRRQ

FOXA1 forkhead domain [2] = biological target: T2, FOXA1 forkhead domain (UniProt P55317 169-260); experiment: EMSA
T2 sequence: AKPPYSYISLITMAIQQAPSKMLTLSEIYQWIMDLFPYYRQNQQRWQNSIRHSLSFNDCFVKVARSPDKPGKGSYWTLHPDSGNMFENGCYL

[3] = biological target: T3, FOXA1 forkhead domain;FOXA2 forkhead domain, Twin-Strep-tagged (human?;human?, UniProt P55317;Q9Y261 169-260;159-252, |); experiment: EMSA
T3 sequence 1: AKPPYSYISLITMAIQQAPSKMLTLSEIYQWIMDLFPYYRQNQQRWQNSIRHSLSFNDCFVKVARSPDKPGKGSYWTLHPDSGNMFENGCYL
T3 sequence 2: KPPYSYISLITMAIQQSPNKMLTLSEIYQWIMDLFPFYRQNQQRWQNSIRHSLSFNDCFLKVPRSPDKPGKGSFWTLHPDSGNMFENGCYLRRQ

FOXA2 forkhead domain [4] = biological target: T1, FOXA2 forkhead domain; experiment: BLI
FOXA1 forkhead domain [5] = biological target: T2, FOXA1 forkhead domain; experiment: BLI

B1: C (canonical FOXA motif) (dsDNA)
DNA 1: CCGCCGCCGTGTTTACTTTGCCGCCGCC
DNA 2: GGCGGCGGCAAAGTAAACACGGCGGCGG
binding result (FOXA2 forkhead domain [1]): binds

B2: PAL (extended palindromic motif) (dsDNA)
DNA 1: CCGCCGTAAGTAAATATTTACTTAGCCGCC
DNA 2: GGCGGCTAAGTAAATATTTACTTACGGCGG
binding result (FOXA2 forkhead domain [1]): binds
binding result (FOXA1 forkhead domain [2]): binds
binding result [3]: binds

B3: BLI 40-mer (dsDNA)
DNA 1: GTGTCTCCTGCTCTGTCAGCAGGGCACTGTACTTGCTGAT
DNA 2: ATCAGCAAGTACAGTGCCCTGCTGACAGAGCAGGAGACAC
binding result (FOXA2 forkhead domain [4]): binds
binding result (FOXA1 forkhead domain [5]): binds

B4: 2C (two canonical motifs separated by 3 nt) (dsDNA)
DNA 1: CCGCCGTATTTACTGAGTAAATAGCCGCC
DNA 2: GGCGGCTATTTACTCAGTAAATACGGCGG
binding result (FOXA2 forkhead domain [1]): binds
binding result (FOXA1 forkhead domain [2]): binds
binding result [3]: binds
